{"source": "paper PMC2749469", "about": "(Biochemistry, 2009)", "proteins": {"B1": {"name": "E. coli HemG (recombinant, six histidine-tagged) (enzyme, UniProt P0ACB4 1-181, looked up)", "chain": "MKTLILFSTRDGQTREIASYLASELKELGIQADVANVHRIEEPQWENYDRVVIGASIRYGHYHSAFQEFVKKHATRLNSMPSAFYSVNLVARKPEKRTPQTNSYARKFLMNSQWRPDRCAVIAGALRYPRYRWYDRFMIKLIMKMSGGETDTRKEVVYTDWEQVANFAREIAHLTDKPTLK"}}, "target": "the molecule itself", "test": "SEC"}
{"protein": "B1", "values": [{"measurement": "stoichiometry N", "result": 4}]}
